Assay results reported in US20200024322A1 (Eli Lilly, published 2020).
Numbering of substitutions follows the chain as printed. Numbered stars: 1 amine (or outer) side, 2 acyl side, 3 side chain; on linkers, the order of the positions; unused ones are H or OH. Square brackets hold non-standard residues; d marks the D form. Side chains are listed from the residue outwards. Ends that are not written are not given here. * marks the point of attachment. C20 diacid = O=C(O)CCCCCCCCCCCCCCCCCCC(=O)*; αMePhe(2-F) = C[C@](N)(Cc1ccccc1F)C(=O)O; γGlu = O=C(O)[C@H](CCC(=O)[*:2])N[*:1]; αMeL = CC(C)C[C@](C)(N)C(=O)O; AEEA = NCCOCCOCC(=O)O; Aib = CC(C)(N)C(=O)O

Legend:
human GIP receptor = biological target: T1, human GIP receptor (human, UniProt P48546 22-466); assay: SPA, [125I]-GIP displacement, hGIPR membranes
T1 construct: whole, on cells; Used as crude membranes of stably transfected CHO cells; also called hGIPR
T1 sequence (looked up): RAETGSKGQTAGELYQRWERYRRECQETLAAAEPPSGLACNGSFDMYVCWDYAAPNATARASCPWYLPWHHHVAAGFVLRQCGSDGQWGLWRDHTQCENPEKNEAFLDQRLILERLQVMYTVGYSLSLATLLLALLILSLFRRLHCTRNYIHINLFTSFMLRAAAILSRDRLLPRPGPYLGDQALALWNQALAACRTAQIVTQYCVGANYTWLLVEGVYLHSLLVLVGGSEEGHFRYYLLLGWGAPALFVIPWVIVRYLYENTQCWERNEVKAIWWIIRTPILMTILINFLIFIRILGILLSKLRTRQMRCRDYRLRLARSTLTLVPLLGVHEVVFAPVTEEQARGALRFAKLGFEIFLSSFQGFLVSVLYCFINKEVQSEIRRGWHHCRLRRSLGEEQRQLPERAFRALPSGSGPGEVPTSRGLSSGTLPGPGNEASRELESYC

human GLP-1 receptor = biological target: T2, human GLP-1 receptor (human, UniProt P43220 24-463); assay: SPA, [125I]-GLP-1 displacement, hGLP-1R membranes
T2 construct: whole, on cells; Used as crude membranes of stably transfected HEK293 cells; also called hGLP1R; hGLP-1R

human glucagon receptor = biological target: T3, human glucagon receptor (human, UniProt P47871 26-477); assay: SPA, [125I]-Gcg displacement, hGcgR membranes
T3 construct: whole, on cells; Used as crude membranes of stably transfected HEK293 cells; also called hGcgR; hGLcgR
T3 sequence (P47871 26-477): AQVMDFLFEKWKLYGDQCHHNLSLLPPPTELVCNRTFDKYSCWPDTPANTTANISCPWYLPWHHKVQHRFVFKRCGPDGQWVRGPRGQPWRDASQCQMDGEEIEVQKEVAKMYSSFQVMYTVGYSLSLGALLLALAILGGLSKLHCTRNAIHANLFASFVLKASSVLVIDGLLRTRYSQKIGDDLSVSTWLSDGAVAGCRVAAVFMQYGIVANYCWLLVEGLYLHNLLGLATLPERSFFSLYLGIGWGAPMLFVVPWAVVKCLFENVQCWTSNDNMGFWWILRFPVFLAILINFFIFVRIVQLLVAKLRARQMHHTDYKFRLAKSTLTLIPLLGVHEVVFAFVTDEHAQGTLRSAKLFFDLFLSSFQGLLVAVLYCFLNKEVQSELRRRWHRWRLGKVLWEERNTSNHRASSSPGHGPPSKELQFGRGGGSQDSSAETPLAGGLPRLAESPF

B1: Example 153 (peptide)
peptide: YXEGTXTSDYSIXLDEKAQXEFIHYLIEGGPSSGAPPPS
modifications: Aib2; αMeF(2F)6; αMeL13; K17((2-[2-(2-Amino-ethoxy)-ethoxy]-acetyl)2-(γ-Glu)-CO-(CH2)18-CO2H); Aib20; C-terminal NH2
Ki (human GIP receptor): 0.0578 nM | Ki (human GLP-1 receptor): 22.2 nM | Ki (human glucagon receptor): 43.8 nM

B2: Example 154 (peptide)
peptide: Y[Aib]EGT[αMePhe(2-F)]TSDHSI[αMeL]LDEK([AEEA-AEEA-γGlu-C20 diacid])AQ[Aib]EFIEYLIEGGPSSGAPPPS-NH2
modifications: N-terminus assumed
SMILES: CC[C@H](C)[C@H](NC(=O)[C@H](CC(C)C)NC(=O)[C@H](Cc1ccc(O)cc1)NC(=O)[C@H](CCC(=O)O)NC(=O)[C@@H](NC(=O)[C@H](Cc1ccccc1)NC(=O)[C@H](CCC(=O)O)NC(=O)C(C)(C)NC(=O)[C@H](CCC(N)=O)NC(=O)[C@H](C)NC(=O)[C@H](CCCCNC(=O)COCCOCCNC(=O)COCCOCCNC(=O)CC[C@H](NC(=O)CCCCCCCCCCCCCCCCCCC(=O)O)C(=O)O)NC(=O)[C@H](CCC(=O)O)NC(=O)[C@H](CC(=O)O)NC(=O)[C@H](CC(C)C)NC(=O)[C@](C)(CC(C)C)NC(=O)[C@@H](NC(=O)[C@H](CO)NC(=O)[C@H](Cc1c[nH]cn1)NC(=O)[C@H](CC(=O)O)NC(=O)[C@H](CO)NC(=O)[C@@H](NC(=O)[C@](C)(Cc1ccccc1F)NC(=O)[C@@H](NC(=O)CNC(=O)[C@H](CCC(=O)O)NC(=O)C(C)(C)NC(=O)[C@@H](N)Cc1ccc(O)cc1)[C@@H](C)O)[C@@H](C)O)[C@@H](C)CC)[C@@H](C)CC)C(=O)N[C@@H](CCC(=O)O)C(=O)NCC(=O)NCC(=O)N1CCC[C@H]1C(=O)N[C@@H](CO)C(=O)N[C@@H](CO)C(=O)NCC(=O)N[C@@H](C)C(=O)N1CCC[C@H]1C(=O)N1CCC[C@H]1C(=O)N1CCC[C@H]1C(=O)N[C@@H](CO)C(N)=O
Ki (human GIP receptor): 0.061 nM | Ki (human GLP-1 receptor): 5.64 nM | Ki (human glucagon receptor): 762 nM

B3: Example 163 (peptide)
peptide: B1 peptide with Y1H, H24E
modifications: Aib2; αMeF(2F)6; αMeL13; K17((2-[2-(2-Amino-ethoxy)-ethoxy]-acetyl)2-(γ-Glu)-CO-(CH2)18-CO2H); Aib20; C-terminal NH2
Ki (human GIP receptor): 0.116 nM | Ki (human GLP-1 receptor): 10.8 nM | Ki (human glucagon receptor): 117 nM

B4: Example 74 (peptide)
peptide: YXEGTFTSDYSIXLDKKAQXAXIEYLIEGGPSSGAPPPS
modifications: Aib2; αMeL13; K17((2-[2-(2-Amino-ethoxy)-ethoxy]-acetyl)2-(γ-Glu)-CO-(CH2)18-CO2H); Aib20; αMeF22; C-terminal NH2
Ki (human GIP receptor): 0.0279 nM | Ki (human GLP-1 receptor): 5.99 nM | Ki (human glucagon receptor): 69.8 nM

B5: Example 4 (peptide)
peptide: B1 peptide with Y10X, E16X, H24X, Y25X
modifications: not fully specified; Aib2; αMeF(2F)6; 4Pal10; αMeL13; Orn16; K17((2-[2-(2-Amino-ethoxy)-ethoxy]-acetyl)2-(γ-Glu)-CO-(CH2)16-CO2H); Aib20; D-Glu24; αMeY25; C-terminal NH2
Ki (human GIP receptor): 0.0528 nM | Ki (human GLP-1 receptor): 1.63 nM | Ki (human glucagon receptor): 686 nM

B6: Example 75 (peptide)
peptide: B4 peptide with X22F, L26X
modifications: Aib2; αMeL13; K17((2-[2-(2-Amino-ethoxy)-ethoxy]-acetyl)2-(γ-Glu)-CO-(CH2)18-CO2H); Aib20; αMeL26; C-terminal NH2
Ki (human GIP receptor): 0.103 nM | Ki (human GLP-1 receptor): 24.4 nM | Ki (human glucagon receptor): 283 nM

B7: Example 76 (peptide)
peptide: B4 peptide with F6X
modifications: Aib2; αMeF6 (printed aMeF); αMeL13; K17((2-[2-(2-Amino-ethoxy)-ethoxy]-acetyl)2-(γ-Glu)-CO-(CH2)18-CO2H); Aib20; αMeF22; C-terminal NH2
Ki (human GIP receptor): 0.0659 nM | Ki (human GLP-1 receptor): 2.64 nM | Ki (human glucagon receptor): 14.4 nM

B8: Example 78 (peptide)
peptide: B4 peptide with Y1X, X13L, X22F
modifications: D-Tyr1; Aib2; K17((2-[2-(2-Amino-ethoxy)-ethoxy]-acetyl)2-(γ-Glu)-CO-(CH2)18-CO2H); Aib20; C-terminal NH2
Ki (human GIP receptor): 0.163 nM | Ki (human GLP-1 receptor): 3.94 nM | Ki (human glucagon receptor): 215 nM

B9: Example 79 (peptide)
peptide: B4 peptide with Y1X, X2A, X13L, X22F
modifications: N-terminal Ac; D-Tyr1; K17((2-[2-(2-Amino-ethoxy)-ethoxy]-acetyl)2-(γ-Glu)-CO-(CH2)18-CO2H); Aib20; C-terminal NH2
Ki (human GIP receptor): 0.0313 nM | Ki (human GLP-1 receptor): 2.69 nM | Ki (human glucagon receptor): 429 nM

B10: Example 81 (peptide)
peptide: B4 peptide with S11X, X13L, X22F
modifications: Aib2; D-Ser11; K17((2-[2-(2-Amino-ethoxy)-ethoxy]-acetyl)2-(γ-Glu)-CO-(CH2)18-CO2H); Aib20; C-terminal NH2
Ki (human GIP receptor): 0.198 nM | Ki (human GLP-1 receptor): 2.88 nM | Ki (human glucagon receptor): 344 nM

B11: Example 83 (peptide)
peptide: B4 peptide with X13L, X22F, E28X
modifications: Aib2; K17((2-[2-(2-Amino-ethoxy)-ethoxy]-acetyl)2-(γ-Glu)-CO-(CH2)18-CO2H); Aib20; D-Glu28; C-terminal NH2
Ki (human GIP receptor): 0.142 nM | Ki (human GLP-1 receptor): 7.1 nM | Ki (human glucagon receptor): 320 nM

B12: Example 5 (peptide)
peptide: B1 peptide with Y10V, E16X, H24X, Y25X
modifications: not fully specified; Aib2; αMeF(2F)6; αMeL13; Orn16; K17((2-[2-(2-Amino-ethoxy)-ethoxy]-acetyl)2-(γ-Glu)-CO-(CH2)16-CO2H); Aib20; D-Glu24; αMeY25; C-terminal NH2
Ki (human GIP receptor): 0.0611 nM | Ki (human GLP-1 receptor): 0.902 nM | Ki (human glucagon receptor): 519 nM

B13: Example 88 (peptide)
peptide: YPEGTFTSDYSILLDKK([AEEA-AEEA-γGlu-C20 diacid])AQ[Aib]AFIEYLIEGGPSSGAPPPS-NH2
modifications: N-terminus assumed
SMILES: CC[C@H](C)[C@H](NC(=O)[C@H](CC(C)C)NC(=O)[C@H](Cc1ccc(O)cc1)NC(=O)[C@H](CCC(=O)O)NC(=O)[C@@H](NC(=O)[C@H](Cc1ccccc1)NC(=O)[C@H](C)NC(=O)C(C)(C)NC(=O)[C@H](CCC(N)=O)NC(=O)[C@H](C)NC(=O)[C@H](CCCCNC(=O)COCCOCCNC(=O)COCCOCCNC(=O)CC[C@H](NC(=O)CCCCCCCCCCCCCCCCCCC(=O)O)C(=O)O)NC(=O)[C@H](CCCCN)NC(=O)[C@H](CC(=O)O)NC(=O)[C@H](CC(C)C)NC(=O)[C@H](CC(C)C)NC(=O)[C@@H](NC(=O)[C@H](CO)NC(=O)[C@H](Cc1ccc(O)cc1)NC(=O)[C@H](CC(=O)O)NC(=O)[C@H](CO)NC(=O)[C@@H](NC(=O)[C@H](Cc1ccccc1)NC(=O)[C@@H](NC(=O)CNC(=O)[C@H](CCC(=O)O)NC(=O)[C@@H]1CCCN1C(=O)[C@@H](N)Cc1ccc(O)cc1)[C@@H](C)O)[C@@H](C)O)[C@@H](C)CC)[C@@H](C)CC)C(=O)N[C@@H](CCC(=O)O)C(=O)NCC(=O)NCC(=O)N1CCC[C@H]1C(=O)N[C@@H](CO)C(=O)N[C@@H](CO)C(=O)NCC(=O)N[C@@H](C)C(=O)N1CCC[C@H]1C(=O)N1CCC[C@H]1C(=O)N1CCC[C@H]1C(=O)N[C@@H](CO)C(N)=O
Ki (human GIP receptor): 0.0717 nM | Ki (human GLP-1 receptor): 4.24 nM | Ki (human glucagon receptor): 545 nM

B14: Example 89 (peptide)
peptide: B4 peptide with E3X, X13L, X22F
modifications: Aib2; Aad3; K17((2-[2-(2-Amino-ethoxy)-ethoxy]-acetyl)2-(γ-Glu)-CO-(CH2)18-CO2H); Aib20; C-terminal NH2
Ki (human GIP receptor): 0.045 nM | Ki (human GLP-1 receptor): 2.64 nM | Ki (human glucagon receptor): 324 nM

B15: Example 91 (peptide)
peptide: B4 peptide with E3X, X13L, X22F
modifications: Aib2; γ-Glu3; K17((2-[2-(2-Amino-ethoxy)-ethoxy]-acetyl)2-(γ-Glu)-CO-(CH2)18-CO2H); Aib20; C-terminal NH2
Ki (human GIP receptor): 1.8 nM | Ki (human GLP-1 receptor): 5.23 nM | Ki (human glucagon receptor): 540 nM
